From article PMC2760748

Legend:
[1] = test system: GST-p53; test: DNA-protein ELISA; conditions: EMSA: 100 ng p53 (or 5 ug KB nuclear extract), 3 ng probe, 30 min at RT, 4% native PAGE with 0.5x TBE, buffer per ref [25]; ELISA: p53 in PBS on PAb421, 0.5 ug …
[2] = test system: His-p53; test: DNA-protein ELISA; conditions: EMSA: 100 ng p53 (or 5 ug KB nuclear extract), 3 ng probe, 30 min at RT, 4% native PAGE with 0.5x TBE, buffer per ref [25]; ELISA: p53 in PBS on PAb421, 0.5 ug …

biotin-p21-5'-DBS
binding signal (% protection of DBS binding) [1]: 60
binding signal (% protection of DBS binding) [2]: 60
